B1: BBSome complex member BBS2 (Homo sapiens), Q9BXC9 (parent)
chain: MLLPVFTLKLRHKISPRMVAIGRYDGTHPCLAAATQTGKVFIHNPHTRNQHVSASRVFQSPLESDVSLLSINQAVSCLTAGVLNPELGYDALLVGTQTNLLAYDVYNNSDLFYREVADGANAIVLGTLGDISSPLAIIGGNCALQGFNHEGSDLFWTVTGDNVNSLALCDFDGDGKKELLVGSEDFDIRVFKEDEIVAEMTETEIVTSLCPMYGSRFGYALSNGTVGVYDKTSRYWRIKSKNHAMSIHAFDLNSDGVNELITGWSNGKVDARSDRTGEVIFKDNFSSAIAGVVEGDYRMDGHIQLICCSVDGEIRGYLPGTAEMRGNLMDTSAEQDLIRELSQKKQNLLLELRNYEENAKAELASPLNEADGHRGIIPANTRLHTTLSVSLGNETQTAHTELRISTSNDTIIRAVLIFAEGIFTGESHVVHPSIHNLSSSICIPIVPPKDVPVDLHLKAFVGYRSSTQFHVFESTRQLPRFSMYALTSLDPASEPISYVNFTIAERAQRVVVWLGQNFLLPEDTHIQNAPFQVCFTSLRNGGHLHIKIKLSGEITINTDDIDLAGDIIQSMASFFAIEDLQVEADFPVYFEELRKVLVKVDEYHSVHQKLSADMADHSNLIRSLLVGAEDARLMRDMKTMKSRYMELYDLNRDLLNGYKIRCNNHTELLGNLKAVNQAIQRAGRLRVGKPKNQVITACRDAIRSNNINTLFKIMRVGTASS
partner: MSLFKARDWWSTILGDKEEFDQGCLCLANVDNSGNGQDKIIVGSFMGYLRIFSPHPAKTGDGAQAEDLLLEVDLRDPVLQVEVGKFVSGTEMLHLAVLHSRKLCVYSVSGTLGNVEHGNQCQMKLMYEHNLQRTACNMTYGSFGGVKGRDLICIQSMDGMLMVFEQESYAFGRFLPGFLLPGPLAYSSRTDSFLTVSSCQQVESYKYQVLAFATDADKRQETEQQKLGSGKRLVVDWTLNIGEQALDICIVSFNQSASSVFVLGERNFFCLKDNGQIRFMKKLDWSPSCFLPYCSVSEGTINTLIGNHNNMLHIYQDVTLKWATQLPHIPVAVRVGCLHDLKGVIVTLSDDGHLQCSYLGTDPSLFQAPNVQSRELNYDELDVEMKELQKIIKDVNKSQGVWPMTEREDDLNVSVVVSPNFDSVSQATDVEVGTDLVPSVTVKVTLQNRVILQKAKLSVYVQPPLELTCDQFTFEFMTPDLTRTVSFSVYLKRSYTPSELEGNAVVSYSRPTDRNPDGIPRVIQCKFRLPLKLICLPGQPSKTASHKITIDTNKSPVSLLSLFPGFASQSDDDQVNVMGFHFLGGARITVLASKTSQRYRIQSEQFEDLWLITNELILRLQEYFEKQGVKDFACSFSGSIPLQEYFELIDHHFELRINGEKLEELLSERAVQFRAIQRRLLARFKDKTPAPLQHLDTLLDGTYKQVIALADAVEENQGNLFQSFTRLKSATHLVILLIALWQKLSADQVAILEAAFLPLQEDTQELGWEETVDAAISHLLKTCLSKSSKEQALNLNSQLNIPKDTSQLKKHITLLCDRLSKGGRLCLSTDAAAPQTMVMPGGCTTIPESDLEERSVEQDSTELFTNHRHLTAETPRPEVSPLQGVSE

Variants of: B1
Conditions: with pthb1_human BBS9, Q3SYG4

effect of a mutation on the interaction | Variant
disrupting interaction strength | K449R
with no effect | K449E
with no effect | K449A
disrupting interaction strength | Y484A
disrupting interaction strength | Y484K
disrupting interaction strength | Y484E
disrupting interaction strength | S466E
with no effect | S466K
with no effect | S466A
with no effect | S482A
disrupting interaction strength | S482P
disrupting interaction strength | S482K
disrupting interaction strength | S482E
disrupting interaction strength | F460A
disrupting interaction strength | F460E
with no effect | F460K
with no effect | D450E
disrupting interaction strength | D450L
with no effect | D450K
with no effect | D450A
with no effect | Q477E
with no effect | Q477A
with no effect | Q477K
with no effect | M483A

effect of a mutation on the interaction | Variant
disrupting interaction strength | M483I
disrupting interaction strength | M483K
disrupting interaction strength | M483E
disrupting interaction strength | V453K
with no effect | V453E
with no effect | V453A
with no effect | R464E
with no effect | R464A
with no effect | R464K
with no effect | V451K
with no effect | V451A
with no effect | V451E
with no effect | R476A
with no effect | R476E
with no effect | R476K
disrupting interaction strength | Y498H
with no effect | Y498E
with no effect | Y498A
with no effect | A492K
with no effect | A492E
disrupting interaction strength | L457E
with no effect | L457A
disrupting interaction strength | L457K
disrupting interaction strength | L457C

effect of a mutation on the interaction | Variant
disrupting interaction strength | L478K
disrupting interaction strength | L478E
disrupting interaction strength | L478P
disrupting interaction strength | L478A
with no effect | K458A
with no effect | K458E
disrupting interaction strength | F469E
with no effect | F469A
disrupting interaction strength | F469L
disrupting interaction strength | F469K
with no effect | P495E
with no effect | P495K
with no effect | P495A
with no effect | H470K
with no effect | H470E
with no effect | H470A
disrupting interaction strength | G462S
with no effect | G462E
with no effect | G462A
disrupting interaction strength | G462D
with no effect | G462K
with no effect | H456K
with no effect | H456A
with no effect | H456E

effect of a mutation on the interaction | Variant
disrupting interaction strength | S474K
disrupting interaction strength | S474A
with no effect | S474E
disrupting interaction strength | S497A
with no effect | S497K
with no effect | S497E
with no effect | T475A
with no effect | T475E
with no effect | T475K
disrupting interaction strength | A459E
disrupting interaction strength | A459T
disrupting interaction strength | A459K
disrupting interaction strength | P479E
with no effect | P479A
disrupting interaction strength | P479L
with no effect | P479K
with no effect | T467E
with no effect | T467K
with no effect | T467A
disrupting interaction strength | L455K
disrupting interaction strength | L455P
with no effect | L455A
disrupting interaction strength | V461E
disrupting interaction strength | V461M

effect of a mutation on the interaction | Variant
disrupting interaction strength | V461A
disrupting interaction strength | V461K
with no effect | D490A
with no effect | D490K
with no effect | D490E
with no effect | D454A
with no effect | D454E
with no effect | D454K
with no effect | L486E
with no effect | L486K
with no effect | L486A
with no effect | F472K
with no effect | F472E
with no effect | F472A
with no effect | E473K
with no effect | E473A
with no effect | P452K
with no effect | P452E
with no effect | P452A
with no effect | P491A
with no effect | P491E
with no effect | P491K
with no effect | P448A
with no effect | P448E

effect of a mutation on the interaction | Variant
with no effect | P448K
disrupting interaction strength | F481K
disrupting interaction strength | F481E
disrupting interaction strength | F481A
with no effect | T487A
with no effect | T487E
with no effect | T487K
disrupting interaction strength | T487M
with no effect | R480K
with no effect | R480A
with no effect | R480E
with no effect | P447K
with no effect | S465E
with no effect | S465A
with no effect | S465K
with no effect | V471K
disrupting interaction strength | V471A
with no effect | V471E
with no effect | A485E
with no effect | A485K
disrupting interaction strength | A485S
with no effect | E494K
with no effect | E494A
with no effect | S488K

effect of a mutation on the interaction | Variant
with no effect | S488E
with no effect | S488A
disrupting interaction strength | S488R
with no effect | S493E
with no effect | S493K
with no effect | S493A
with no effect | Y463E
with no effect | Y463K
with no effect | Y463A
with no effect | I496A
with no effect | I496E
with no effect | I496K
with no effect | L489K
with no effect | L489E
with no effect | L489A
with no effect | Q468A
with no effect | Q468K
with no effect | Q468E

Source: IntAct's records for PubMed 29039417
